# According to US20240336686A1 (ELPISCIENCE SUZHOU BIOPHARMA, published 2024):
# Numbering of substitutions follows the chain as printed. Names and notes keep the numbering of the source.
# T1: human Claudin18.2 protein (Octet assay) (human, UniProt P56856-2 1-261, limits assumed)
# T1 construct: UniProt P56856 isoform A2 corresponds to Claudin18.2; also called CLDN18.2
# T1 sequence (looked up): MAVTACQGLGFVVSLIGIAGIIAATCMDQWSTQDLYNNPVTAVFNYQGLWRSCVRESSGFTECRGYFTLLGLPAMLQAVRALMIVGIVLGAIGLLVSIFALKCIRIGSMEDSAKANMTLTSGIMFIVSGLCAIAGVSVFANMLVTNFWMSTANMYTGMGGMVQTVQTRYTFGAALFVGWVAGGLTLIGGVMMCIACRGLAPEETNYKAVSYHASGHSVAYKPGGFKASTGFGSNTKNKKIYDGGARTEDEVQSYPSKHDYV
# B1: Humanized anti-SIRPα antibody hu025.021 (antibody, V domains shown)
# VH: EVQLVQSGAEVKKPGATVKISCKVSGFNIKDYYMHWVQQAPGKGLEWIGRIDPEDAETKYAPKFQGRVTITADTSTNTAYMELSSLRSEDTAVYYCDRGLAYWGQGTLVTVSS
# VL: EIVLTQSPATLSLSPGERATLSCSASSSVSSSYLYWYQQKPGQAPKLWIYSTSNLASGIPARFSGSGSGTDYTLTISSLEPEDFAVYYCHQWSSYPYTFGQGTKLEIK
# notes: Humanized from C25
# B2: Humanized anti-SIRPα antibody hu025.059 (antibody, V domains shown)
# VH: B1 VH with V24A
# VL: B1 VL
# notes: Humanized from C25
# B3: Humanized anti-SIRPα antibody hu025.033 (antibody, V domains shown)
# VH: B1 VH with N77D
# VL: B1 VL
# notes: Humanized from C25
# B4: Anti-PDL1/SIRPα bispecific antibody ES019-079 (bispecific antibody)
# light: QIVLTQSPAIMSASPGEKVTLTCSASSSVSSSYLYWYQQKPGSSPKLWIYSTSNLASGVPARFSGSGSGTSYSLTISSMEAEDAASYFCHQWSSYPYTFGGGTKLEIK
# heavy (part 1 of 2): EVQLVESGGGLVQAGGSLRLSCAASGFTFSSHAMSWVRQAPGKGLEWVSDIDTSGTTTDYADSVKGRFTISRDNAKNTLYLQMNSLKPEDTAVYYCAKGPREATDIRSWGQGTQVTVSS
# heavy (part 2 of 2): GGGGSGGGGSGGGGSEVQLQQSGAELVKPGASVKLSCTASGFNIKDYYMHWVKQRTEQGLEWIGRIDPEDGETKYAPKFQGKATITADTSSNTAYLQLSSLTSEDTAVYYCDRGLAYWGQGTLVTVSA
# notes: not shown: CL; linker and Fc; CH1
# B5: Anti-PDL1/SIRPα bispecific antibody ES019-025 (bispecific antibody)
# light: B4 light
# heavy (part 1 of 2): EVQVVESGGGLVQSGGSLKLSCAGSGFTESAGFMVWHRQVPGKERELVALIATPSGSTNYADSVKGRFTISRDNGKNTVYLQMNSLKPEDTAVYYCNIRGYWGQGTLVTVSS
# heavy (part 2 of 2): EVQLQQSGAELVKPGASVKLSCTASGFNIKDYYMHWVKQRTEQGLEWIGRIDPEDGETKYAPKFQGKATITADTSSNTAYLQLSSLTSEDTAVYYCDRGLAYWGQGTLVTVSA
# notes: not shown: CL; linker; CH1-Fc
# B6: Anti-PDL1/SIRPα bispecific antibody ES019-029 (bispecific antibody)
# chain 1: B5 heavy (part 1 of 2)
# chain 2: B5 heavy (part 2 of 2)
# chain 3: B4 light
# B7: Anti-PDL1 antibody C570 (antibody, V domains shown)
# VH: B4 heavy (part 1 of 2)
# notes: Heavy chain antibody; also called Anti-PDL1, C570
# B8: Anti-PDL1 antibody 570h3 (antibody, V domains shown)
# VH: B4 heavy (part 1 of 2) with A14P, A75S, K87R, P88A, Q114T
# notes: Humanized heavy chain antibody; also called Anti-PDL1, 570h3
# B9: Anti-Claudin18.2 antibody hu28.H1L2 (antibody, V domains shown)
# VH: QVQLVQSGAEVKKPGASVKVSCKASGYTFTNWVHWVRQAPGQGLEWMGEINPTNARSNYNEKFKKRVTMTRDTSTSTVYMELSSLRSEDTAVYYCARIYYGNSFAHWGQGTLVTVSS
# VL: DIVMTQSPDSLAVSLGERATINCKSSQSLLNAGNQKNYLTWYQQKPGQPPKLLIYWSSTRESGVPDRFSGSGSGTDFTLTISSLQAEDVAVYHCQNNYYYPLTFGGGTKLEIK
# notes: Humanized monoclonal antibody; also called Anti-Claudin18.2, hu28.H1L2
# B10: Anti-Claudin18.2/SIRPα bispecific antibody ES028-005 (bispecific antibody)
# light: B9 VL
# heavy (part 1 of 2): B9 VH
# heavy (part 2 of 2): GGGGSGGGGSGGGGSQIVLTQSPAIMSASPGEKVTLTCSASSSVSSSYLYWYQQKPGSSPKLWIYSTSNLASGVPARFSGSGSGTSYSLTISSMEAEDAASYFCHQWSSYPYTFGGGTKLEIKGGGGSGGGGSGGGGSGGGGSEVQLQQSGAELVKPGASVKLSCTASGFNIKDYYMHWVKQRTEQGLEWIGRIDPEDGETKYAPKFQGKATITADTSSNTAYLQLSSLTSEDTAVYYCDRGLAYWGQGTLVTVSA
# notes: not shown: CL; CH1-Fc
# B11: Anti-Claudin18.2/SIRPα bispecific antibody ES028-001 (bispecific antibody)
# light (part 1 of 2): B9 VL
# light (part 2 of 2): B10 heavy (part 2 of 2)
# heavy: B9 VH
# notes: not shown: CL; CH1-Fc
# B12: Anti-Claudin18.2/SIRPα bispecific antibody ES028-009 (bispecific antibody)
# light (part 1 of 2): B4 light
# light (part 2 of 2): GGGGSGGGGSGGGGSDIVMTQSPDSLAVSLGERATINCKSSQSLLNAGNQKNYLTWYQQKPGQPPKLLIYWSSTRESGVPDRFSGSGSGTDFTLTISSLQAEDVAVYHCQNNYYYPLTFGGGTKLEIKGGGGSGGGGSGGGGSGGGGSQVQLVQSGAEVKKPGASVKVSCKASGYTFTNWVHWVRQAPGQGLEWMGEINPTNARSNYNEKFKKRVTMTRDTSTSTVYMELSSLRSEDTAVYYCARIYYGNSFAHWGQGTLVTVSS
# heavy: B5 heavy (part 2 of 2)
# notes: not shown: CL; CH1-Fc
# B13: Anti-Claudin18.2 antibody hu26.H1L2 (S92A) (antibody, V domains shown)
# VH: EVQLLESGGGLVQPGGSLRLSCAASGFTLSSYALSWVRQAPGKGLEWVSYISNLGGSTFYPDTVKGRFTISRDNSKNTLYLQMNSLRAEDTAVYYCAKHLYNYDAFASWGQGTLVTVSS
# VL: DIQLTQSPSFLSASVGDRVTITCRASSSVNYIHWYQQKPGKAPKALIYATSNLASGVPSRFSGSGSGTEYTLTISSLQPEDFATYYCQQWNANPLTFGQGTKLEIK
# notes: Humanized monoclonal antibody; also called Anti-Claudin18.2, hu26.H1L2 (S92A)
# Molecular target: T2, human SIRPα v1 ECD recombinant protein (human, UniProt P78324 31-373)
# T2 construct: extracellular domain; Coated on the ELISA plate
# T2 sequence (P78324 31-373): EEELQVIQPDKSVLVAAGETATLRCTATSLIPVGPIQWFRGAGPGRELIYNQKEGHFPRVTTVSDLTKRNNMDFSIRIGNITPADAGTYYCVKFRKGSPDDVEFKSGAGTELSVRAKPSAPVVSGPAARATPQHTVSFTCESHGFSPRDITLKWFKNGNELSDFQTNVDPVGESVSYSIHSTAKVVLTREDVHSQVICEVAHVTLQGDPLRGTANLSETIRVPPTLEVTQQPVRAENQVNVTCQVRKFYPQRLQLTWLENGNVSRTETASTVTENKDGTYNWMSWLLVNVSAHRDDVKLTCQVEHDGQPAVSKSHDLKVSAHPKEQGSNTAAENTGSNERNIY
# Assay: competitive ELISA, plate-coated human SIRPα v1 ECD; blocked ligand: mFc tagged human CD47 ECD
# Description: (§1) Competitive ELISA assay was used to determine whether the purified chimeric antibodies can block CD47 and SIRPα interaction. Briefly, antibody and mFc tagged human CD47 ECD recombinant protein were co-incubated with ELISA microplate coated human SIRPα v1 ECD or human SIRPα v2 ECD recombinant protein. The concentration of soluble ECD of CD47 is 25 nM, and the concentration of soluble ECD of SIRPα is 20 nM. After washing, HRP labeled anti-mouse Fc 2nd antibody (Sigma) was added and incubated at 37° C. for 1 hour. Then, 100 μl/well of TMB solution (Biotechnology) was added. After incubation for 15 minutes at room temperature, the reaction was stopped by the addition of 50 μl of 1N HCl. OD 450 nm was read. Blocking ratio was determined by blockade of human SIRPα ECD recombinant protein binding to ELISA microplate coated human CD47 ECD recombinant protein. All antibodies as tested can block interaction between human CD47 and different human SIRPα variants.
# (§2) The humanized antibodies were tested for the ability to block CD47 and SIRPα interaction with competitive ELISA assay (refer to methods described above).
IC50 [nM],TOP blocking [%],Binder
2.07,97.7,B1
2.48,97.1,B2
2.22,97.2,B3

# Molecular target: human PDL1 protein (Octet assay) (human, UniProt Q9NZQ7 19-238)
# Sequence (Q9NZQ7 19-238 limits assumed): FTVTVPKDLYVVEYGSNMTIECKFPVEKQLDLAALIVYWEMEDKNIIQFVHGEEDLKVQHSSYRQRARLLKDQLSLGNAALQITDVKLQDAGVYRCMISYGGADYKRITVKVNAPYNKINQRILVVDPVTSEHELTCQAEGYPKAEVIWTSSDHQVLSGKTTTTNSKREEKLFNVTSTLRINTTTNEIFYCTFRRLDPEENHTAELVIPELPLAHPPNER
# Assay: Octet; antibody on sensor, PDL1 protein in solution
# Description: (§3) The Anti-PDL1/SIRPα bispecific protein were characterized for binding affinity against human PDL1 using Octet assay (ForeBio) according to manufacturer's manual, separately. Briefly, the antibodies were coupled on sensors and then the sensors were dipped into PDL1 protein gradients (start at 200 nM, with 2-fold dilution and totally 8 doses). Their binding responses were measured in real-time and results were fit globally.
Kd [nM],koff [s⁻¹],kon [M⁻¹ s⁻¹],Binder
0.0485,2.85e-05,588000,B4
3.81,0.00604,1.58e+06,B5
1.23,0.00136,1.11e+06,B6
0.374,0.000306,819000,B7
0.198,9.29e-05,470000,B8

# Molecular target: T3, human SIRPα v2 ECD recombinant protein (human)
# T3 construct: extracellular domain; Coated on the ELISA plate
# Assay: competitive ELISA, plate-coated human SIRPα v2 ECD; blocked ligand: mFc tagged human CD47 ECD
# Description: as §1, §2
IC50 [nM],TOP blocking [%],Binder
1.96,98.3,B1
2.03,98.3,B2
1.88,98.3,B3

# Molecular target: T4, human SIRPα v2 on CHOK1 cells (human, UniProt P78324 31-504)
# T4 construct: whole, on cells; also called CHOK1-hSIRPα v2; cell surface human SIRPα v2
# T4 sequence (P78324 other isoform, or with tags, fused parts or gaps limits assumed): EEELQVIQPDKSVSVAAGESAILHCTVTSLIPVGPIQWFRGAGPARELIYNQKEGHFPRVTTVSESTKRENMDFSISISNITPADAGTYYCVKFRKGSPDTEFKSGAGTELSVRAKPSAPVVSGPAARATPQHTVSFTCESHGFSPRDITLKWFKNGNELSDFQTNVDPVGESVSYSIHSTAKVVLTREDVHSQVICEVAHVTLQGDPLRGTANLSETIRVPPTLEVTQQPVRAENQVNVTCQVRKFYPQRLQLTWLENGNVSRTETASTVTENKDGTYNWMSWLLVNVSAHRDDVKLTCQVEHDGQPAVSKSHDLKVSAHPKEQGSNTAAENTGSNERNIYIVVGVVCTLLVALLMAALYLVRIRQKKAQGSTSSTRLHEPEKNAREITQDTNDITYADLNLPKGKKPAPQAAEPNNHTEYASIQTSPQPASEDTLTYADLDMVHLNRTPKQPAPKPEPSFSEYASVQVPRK
# Assay: FACS, CHOK1 cells stably expressing human SIRPα v2
EC50 [nM],TOP MFI [MFI],Binder
0.87,46400,B1
0.75,47300,B2
0.62,39800,B3

# Molecular target: T5, Human SIRPα v2 (human)
# T5 construct: also called human SIRPα v2 (antigen of the Biacore assay)
# Assay: SPR (Biacore), 1:1 binding model
# Description: The humanized antibodies were characterized for binding affinity against human SIRPα v1, human SIRPα v2 using Surface Plasmon Resonance technology (Biacore system). The association and dissociation curves were fit with 1:1 binding model, and the Ka/Kd/KD values for each antibody were calculated.
Kd [nM],koff [s⁻¹],kon [M⁻¹ s⁻¹],Binder
3.39,0.0056,1.65e+06,B1
2.76,0.00392,1.42e+06,B2

# Molecular target: T1, human Claudin18.2 protein (Octet assay)
# Assay: Octet; antibody on sensor, Claudin18.2 protein in solution
# Description: as §3, with “Anti-Claudin18.2/SIRPα” for “Anti-PDL1/SIRPα”, “Claudin18.2 or SIRPα” for “PDL1”
Kd [nM],koff [s⁻¹],kon [M⁻¹ s⁻¹],Binder
< 0.001,< 1e-07,95800,B9
< 0.001,< 1e-07,106000,B10
< 0.001,< 1e-07,105000,B11
< 0.001,< 1e-07,21100,B12
1.81,6.25e-05,34500,B13

# Molecular target: T6, human SIRPα v1 on CHOK1 cells (human, UniProt P78324 31-504)
# T6 construct: whole, on cells; also called CHOK1-hSIRPα v1; cell surface human SIRPα v1
# T6 sequence (P78324 31-504): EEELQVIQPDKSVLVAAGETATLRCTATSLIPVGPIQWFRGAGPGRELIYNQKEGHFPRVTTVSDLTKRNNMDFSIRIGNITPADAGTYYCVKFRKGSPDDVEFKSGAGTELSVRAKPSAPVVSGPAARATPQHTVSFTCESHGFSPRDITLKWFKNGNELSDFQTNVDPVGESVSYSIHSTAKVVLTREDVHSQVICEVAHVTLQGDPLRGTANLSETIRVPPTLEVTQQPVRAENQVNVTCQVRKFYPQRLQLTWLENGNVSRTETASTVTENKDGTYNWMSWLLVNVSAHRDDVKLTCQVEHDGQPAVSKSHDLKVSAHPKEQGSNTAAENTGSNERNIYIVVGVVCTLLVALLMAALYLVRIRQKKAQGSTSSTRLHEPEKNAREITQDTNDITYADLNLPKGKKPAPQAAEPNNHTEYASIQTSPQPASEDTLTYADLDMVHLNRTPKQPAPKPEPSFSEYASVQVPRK
# Assay: FACS, CHOK1 cells stably expressing human SIRPα v1
EC50 [nM],TOP MFI [MFI],Binder
1.08,56400,B1
1.05,59400,B2
0.99,53800,B3

# Molecular target: Full length human SIRPα v1 with beta-gal fragment (ED) at its C-terminal, in K562 cells (human, UniProt P78324 31-504)
# Sequence (P78324 31-504): as above
# Assay: cell-based or functional assay
IC50 (SHP-1 recruitment blocking) [nM],TOP blocking (SHP-1 recruitment) [%],Binder
0.1,86.3,B1
0.1,78.8,B2
0.19,84.5,B3
